Data from the DeepSol protein solubility set.

Experiment: soluble on expression in E. coli; label from the status in PepcDB or PDB records

Which “soluble on expression in E. coli” value does the source give for “MSLGIVIYGTRVIYPAEKKEVVVQLVNQGEQASLVQSWIDDGNTSLPPEKIQVPFMLTPPVARVAAESGQQIKIKKMPNSLPDNKESLFYLNVLDIPPNSQENAGKNVLKFAMQNRIKLIWRPSRIAAVTKDSFQRIGLFRSNKAVIMKNDTANWITVTDVKAGNTKINDQTIMLPPLSTQNINMKYASTSQYEVTIIDDNGNYISSKMNVKEGHHHHHH” here?
Its value is “soluble”.

For “MGSDKIHHHHHHMRGVLTMIRLFKAIPELELPVYSGEDSPVDGTEKTTGFLISNHVPGEQVEETLLVASAEIKTSQTGREWLQFTFNSPSGSCKGKQWLNQGTAEEAMRPYLETGIVHVSAKVDEYPVDSGNKSLTVQTVKAVHDQSGTAYLPQMPAGESAKDYRDQLIGLIEKMETPLRQVAHRVVSAYWDDFSTRPAALYHHHAYIGGLLKHTACMMTIGFGICQSERPDLTLLQCIQEAEADHKNDLFQAGERDMRQFAWDDSFDALYQSARSIALLNERPHQDELLLGILLHDIGKIFEYTHLGASGDRFSRLVQTEPASEKLSGIALDPNGVLIGHMPYGCFVLEQALQTEAVRLPVDQYHRLMHMILSHHGKKEWGSSVTPQTTDAWYLHAIDLLDARKEKWRQSQLT”, which “soluble on expression in E. coli” value is on record?
The value was “not soluble”.

Which “soluble on expression in E. coli” value does the source give for “MGSDKIHHHHHHMAGRFDAFVLFAEMRTGSNYLEDSLNTFADINCLGEVFNPTFIGHDNNFEMLGYDMDRREHDPLGLLDAIIDTVDGLPGFRLFHDHDTRVVDRVLPDPRIAKVILTRNPLDSYVSRKIATATGQWKLTDMKHAKTAQIRFDADEFGALLDAVLPFQEYVRQGLLKSGQVAFQVRYEDINDPEMLNGLAAFLGSDERVERASKTLKRQNPAPLRDKVENYEEMVAALSDLDRFGLDKLPELEPDRGAQVPNFVAHPTLGLLFCPIKGAPEKSVLNWMGALGDVGKDALIRKMTQKQLRQWMKDNPGFRSFTVLRHPVVRAYTVFNRFILPDDRPAYADPRKTLRQRYKVPIPENAPGDGWTEAEQKAAFQGFIFFLKGNLAGQTSVRVDQAWATQTAILQGTSSVMVPQAVIHEDHMTEALPALAHQVGAEDVPQVVEEAMPGLHKLKSIYDGKIEQALIDTYRRDYVGFGFPRWNKR” here?
The value was “not soluble”.

Which “soluble on expression in E. coli” value does the source give for “MAHHHHHHMGTLEAQTQGPGSMPIKSSLLIVVACALLDQDNRVLLTQRPEGKSLAGLWEFPGGKVEQGETPEASLIRELEEELGVHVQADNLFPLTFASHGYETFHLLMPLYFCSHYKGVAQGREGQNLKWIFINDLDKYPMPEADKPLVQVLKNFFI” here?
Its value is “soluble”.

With “VFPSNATFGMGDRVRKKSGAAWQGQIVGWYCTNLTPEGYAVESEAHPGSVHIYPVAALERIN” as the sequence, how does the “soluble on expression in E. coli” value read?
The value was “soluble”.

With “MKMELLLIIITQDAYIGQRFTKRSSYLCGIYDKTANTMKEPFQIPTSKDIENLIGTDLYDVWNSLCQRIEKSYEMELLWNRGGKAWTYEYKYRKGGKTLCALYAKEKTLGFMVILGKDERAKFEIQRGQFSNEVQMIYDAATTFHDGKWIMFELKDTKLFNDMERLLLIKRKPNRKAE” as the sequence, how does the “soluble on expression in E. coli” value read?
The value was “soluble”.

Which “soluble on expression in E. coli” value does the source give for “MKRIVVKVGSHVISEENTLSFERLKNLVAFLAKLMEKYEVILVTSAAISAGHTKLDIDRKNLINKQVLAAIGQPFLISVYNELLAKFNKLGGQILLTGKDFDSRKATKHAKNAIDMMINLGILPIINENDATAIEEIVFGDNDSLSAYATHFFDADLLVILSDIDGFYDKNPSEFSDAKRLEKITHIKEEWLQATIKTGSEHGTGGIVTKLKAAKFLLEHNKKMFLASGFDLSVAKTFLLEDKQIGGTLFE” here?
The value was “soluble”.

Which “soluble on expression in E. coli” value does the source give for “MNLLVTSSLGVLLHLVVLCQADDHSELLVNTKSGKVMGTRVPVLSSHISAFLGIPFAEPPVGNMRFRRPEPKKPWSGVWNASTYPNNCQQYVDEQFPGFSGSEMWNPNREMSEDCLYLNIWVPSPRPKSTTVMVWIYGGGFYSGSSTLDVYNGKYLAYTEEVVLVSLSYRVGAFGFLALHGSQEAPGNVGLLDQRMALQWVHDNIQFFGGDPKTVTIFGESAGGASVGMHILSPGSRDLFRRAILQSGSPNCPWASVSVAEGRRRAVELGRNLNCNLNSDEELIHCLREKKPQELIDVEWNVLPFDSIFRFSFVPVIDGEFFPTSLESMLNSGNFKKTQILLGVNKDEGSFFLLYGAPGFSKDSESKISREDFMSGVKLSVPHANDLGLDAVTLQYTDWMDDNNGIKNRDGLDDIVGDHNVICPLMHFVNKYTKFGNGTYLYFFNHRASNLVWPEWMGVIHGYEIEFVFGLPLVKELNYTAEEEALSRRIMHYWATFAKTGNPNEPHSQESKWPLFTTKEQKFIDLNTEPMKVHQRLRVQMCVFWNQFLPKLLNATACDGELSSSGTSSSKGIIFYVLFSILYLIF” here?
The value was “soluble”.

For “MSDKPDSQVFCPNCNERLQKCLVQQNYAIIICPSLVCGYPFNQREVLENLTYVDDNDVLKVAKKRLSSRSKP”, which “soluble on expression in E. coli” value is on record?
Its value is “soluble”.

With “MSYRESRQRLERLTESPSHLTIWRRMQELSYESKFEYESFVSADGTKLHAKRSKKLDVKVIAGKSVIVGINESHREMRGEYDVKATVVGDADRDLSCF” as the sequence, how does the “soluble on expression in E. coli” value read?
The value was “not soluble”.

For “MNVIYPLAVPKGRRLCCEVCEAPAERVCAACTVTYYCGVVHQKADWDSIHEKICQLLIPLRTSMPFYNSEEERQHGLQQLQQRQKYLIEFCYTIAQKYLFEGKHEDAVPAALQSLRFRVKLYGLSSVELVPAYLLLAEASLGLGRIVQAEEYLFQAQWTVLKSTDCSNATHSLLHRNLGLLYIAKKNYEEARYHLANDIYFASCAFGTEDIRTSGGYFHLANIFYDLKKLDLADTLYTKVSEIWHAYLNNHYQVLSQAHIQQMDLLGKLFENDTGLDEAQEAEAIRILTSILNIRESTSDKAPQKTIFVLKILVMLYYLMMNSSKAQEYGMRALSLAKEQQLDVHEQSTIQELLSLISTEDHPIT”, which “soluble on expression in E. coli” value is on record?
The value was “soluble”.

Which “soluble on expression in E. coli” value does the source give for “MAHHHHHHMRFLKTLFSLNCLASVGFYKKFACKNLFFENSFIRKDLHTYFIDKRKYFHLNKKDICTNTIIIPFYKDNYSYIFYDDKEEGIVVDPADYNIINDISKKENIKIKHVLCTHKHSDHNNGNQYYYEKNINVYGIKEYDNKYINQDISNLTHFQINNFKINIFLSNFHSKNQVSYLIENDNNKSKKNIFFTGDFLFISGIGKNFEQDNEDLYNSINKLKLLDKQNIYIFCGHEYTLDNLKFALTVDSTNKNLLSFYDHVVNSNKNYPTVPTLLEHEYLYNPFLRCDQNDVRKSIDLYAKKKNIKIQQESDYIVILRLMKDNFKAS” here?
The value was “not soluble”.

For “MPIKSVAIIGAGIAGLTAALAFARHGIDCDIIEQTGELAEVGAGLQLSPNAARILATLGVLPDIEARWTEPVSVDLASGKSLTTLLSLPMGAVARSRWGAPYGVLHRSTLQSALLQAVTRNPLCRLHLGKRIENATADVIAATTFRDHDLIVGADGVWSAARFSVPAAPTATFSGNVAWRFTVAAEEVPSAFNKTTVTAYLGSRGHIVAYPLKEVGGFNIVAIALGADPGATWRAESSGRQKALLLEQFRDFSPDIVRLLDSSENPTFWPLYQAGPGRWHNGRDTVLIGDAAHAMMPFAAQGAAMAIEDAFELAGTMAGSNGEKPLPVPQALAAFEALRLPRIEKARKRASLNRFAYHARGPVRIARDLVFSTRPPEAFLKDFDWLYGYHARGLEHHHHHH”, which “soluble on expression in E. coli” value is on record?
The value was “soluble”.

With “MSLKITDVDVWVVNLPLVNPFTSSFETKTGETRTVVRVRTDSGVEGWGETMWGAPVAAIVRRMAPDLIGTSPFALEAFHRKQHMVPFFYGYLGYAAIAAVDVACWDAMGKATGQSVTDLLGGAVRDEVPITALITRADAPGATPADLPKAMAEHAVRVVEEGGFDAVKLKGTTDCAGDVAILRAVREALPGVNLRVDPNAAWSVPDSVRAGIALEELDLEYLEDPCVGIEGMAQVKAKVRIPLCTNMCVVRFEDFAPAMRLNAVDVIHGDVYKWGGIAATKALAAHCETFGLGMNLHSGGELGIATAAHLAVVSSTPVLSRAIDSMYYLHADDIIEPLHLENGRLRVPSGPGLGVSVDEDKLRHYAGVNERDGDLTGEGHHHHHH” as the sequence, how does the “soluble on expression in E. coli” value read?
Its value is “soluble”.

For “MAHHHHHHMWNGPTYAIARVRWDSVVRTFSACGTSLASPQRRFSSWFEEQPGGGQHNVEDKAVAAFAVNADRLEKGKTIIKKKAHGIPFHISDAEAVDNVCRHHGAAVEIHSVERFLMPFWLTETSAAGTFKADLLQHDRMNITQPHYFLWLEGPRYQFNYPFGEYMPMNQVSASYREPLKVVERCLTGTHVPSMLLSRFELLHEVEKMEHRPTVIPFTMSTVTALSVIERRVNRRVVLDRIDRELRKFHGSFLKSNVSVMSLQMVASSIRPAFLPLFKLTVSTISHSTPVPAFICGATGKVVGPVLHVQRRKRLGLAAAAAVGTLLSLAPLVEPGVATAAALAVVASSGFVQQAVQRARFVREQAHQMAQLKSVGVLNLVADSTGYRWTPEEEEKEEYEYREELRRQARARDAFEQRVKEEAARDRVRAHGTHFDPKNRRRTDLADVDPRGYYELLGLKGKEFSATAKDITKAFREAVRIHHPDVHPEGEAENKKRHMQRIIEAYKILHNPKTKKFYDSGEMSGKSQETS”, which “soluble on expression in E. coli” value is on record?
Its value is “not soluble”.

With “MGSDKIHHHHHHMKYTYREAGVDVERGESFAKTIKSAVKLPEWVMKEPTGYASILTITTPPVVVTADGIGTKLILHRKHGTWRYAAEDLVGMNYNDLVCVGARPVAFLDYLGVERISEEHESFIKELVNVLDSVDVKLVGGETAEMPDVYRGDWDAVGFAVGVLEKRIPVDKIKEGDVIVGIPSSGFHSNGWSLIRRIIKEESIKIEELPFELLKGTRIYREVIELFDLVKGIAHVTGGGVVRALKRVLGKLGAHVSLPKRDFVDWILKYVDFNEAVNTFNMGVGMFLIVEKQKVDEVLARVDGTVVGKVSSDWRIEYGGEGG” as the sequence, how does the “soluble on expression in E. coli” value read?
Its value is “not soluble”.

Which “soluble on expression in E. coli” value does the source give for “AAEVGDDFLGDFVVGERVWVNGVKPGVVQYLGETQFAPGQWAGVVLDDPVGKNDGAVGGVRYFECPALQGIFTRPSKLTRQP” here?
The value was “soluble”.

For “MDNNPIENFMRTTMENIKGMIDVNTIVGEPIKNTDGSLIIPISKVSFGFASGGSEFKSQEDSQENKKIYPFGGGAGAGVSLKPIAFLVIKDDSVRLLPLNAENTYEKVVDMIPQLIEMCKGFSHKSKKEKCCNDDKKKDSNSTNGNTDNANQNSQQQSLEHHHHHH”, which “soluble on expression in E. coli” value is on record?
The value was “soluble”.

With “MTLPLNPAMAATFPPPVMEARRWIQGLSFPADRPLLNLSQAAPVEPPPAELRAALAEAALHDPQAHLYGPVLGLPALRAEIAAQWSAAYGGRIEPAQVAITQGCNQAFCAIMATLAGAGDEVILPTPWYFNHKMWLDMQGVMAVPLPTGPCLLPDAEEAAALVGPRTRAIVLVSPNNPGGVEYPAATLEAFRDLARARGLALIVDETYRDFDSRTGAPHALFADPDWDGVLVHLYSFSKAYRLTGHRVGAVVASAARLAQIEKFLDTVAICPSQLGQIGALWGIRNLAQWVAGERAEILARRTAMVGGFSALDGWTLLGCGAYFAYVEHPFDTPSDRLAPRLVQEAGVLLLPGTMFQPEGSEAGARQFRMAFANVDQAGIAELFSRLAQVTD” as the sequence, how does the “soluble on expression in E. coli” value read?
Its value is “not soluble”.

With “MDYCCVGRNNNDSVPREVTLLRVKTLMKMANHPRPGDIIQESLDELNVSLREFARAMEIAPSTASRLLTGKAALTPEMAIKLSVVIGSSPQMWLNLQNAWSLAEAEKTVVVSRLRRLVTQ” as the sequence, how does the “soluble on expression in E. coli” value read?
The value was “not soluble”.

Which “soluble on expression in E. coli” value does the source give for “MGSDKIHHHHHHMDLKKWQDPLMNSELQQNYNDNLVKLAGSLEKANQDMTHVNQRISNLVIKSGGNESNEVVDARVSSLVPETEFTTLNDRINYAENALITGVGKLSTNVFDLMDKYNDIDTILKRLYGLDSSNIEIFVDDARGDDIAGTGEIDAPFKTINKAVMTLPRVLNSNSVNIWIVPGRYNEDVVIPPIMGGDIYIRSTNFETVDPTSSTGCQVRSISATGSNGYLYIAGLEETNTAGTTKNYFIKATRCGFVRITKCRMAFNTKAIDPFTAVFIDACSADVNGCYFASQNVDVRGYNTARVEVQNIVHGAKSAIGLYPQSADIFNLNSGTWEADTPTKLSGGGVVRT” here?
Its value is “not soluble”.

Which “soluble on expression in E. coli” value does the source give for “IVGGYTCAANSIPYQVSLNSGSHFCGGSLINSQWVVSAAHCYKSRIQVRLGEHNIDVLEGNEQFINAAKIITHPNFNGNTLDNDIMLIKLSSPATLNSRVATVSLPRSCAAAGTECLISGWGNTKSSGSSYPSLLQCLKAPVLSDSSCKSSYPGQITGNMICVGFLEGGKDSCQGDSGGPVVCNGQLQGIVSWGYGCAQKNKPGVYTKVCNYVNWIQQTIAAN” here?
Its value is “soluble”.
